Assay results as given in paper PMC8580320 (Science Advances, 2021).

Molecular target: the molecule itself
Assay: crystal structure

B1: MtaLonC-S582A (enzyme)
chain: MRLSYEALEWRTPIENSTEPVSLPPPPPFFGQERAREALELAIRGGFHAYLVGPPSLGKHEALLAYLSTQSVETPPDLLYVPLSERKVAVLTLPSGQEIHLAEAVEGLLLEVNRLDELFRQGSFLREKTQLEARFKEAREQQLEALRREAQEAGFALSTNGERLELTGPGPVPAELSARLEEVTLGSLAASAELEVALRRLRRDWALHYLNNRFEPLFQRFPQARAYLEALRARLARYAETGEPLDPAQWRPNLLTSSSSGTPPPIVYEPYATAPRLFGRLDYLVDRGVWSTNVSLIRPGAVHRAQGGYLILDALSLKREGTWEAFKRALRNGQVEPVTEPQAPAGLEVEPFPIQMQVILVGTPEAFEGLEEDPAFSELFRIRAEFSPTLPASPENCTALGGWLLAQGFQLTQGGLTRLYDEARRMAEQRDRMDARLVEIRALAEEAAVLGGGLLTAESVEQAIAAREHRSFLSEEEFLRAVQEGVIRLRTTGRAVGEVNSLVVVEAAPYWGRPARLTARAAPGRDHLISIDREAGLGGQIFHKAVLTLAGYLRSRYIEHGSLPVTISLAFEQNYVSIEGDAAGLAELVAALSAIGNLPLRQDLAVTGAVDQTGKVLAVGAINAKVEGFFRVCKALGLSGTQGVILPEANLANLTLRAEVLEAVRAGQFHIYAVETAEQALEILAGARMEGFRGLQEKIRAGLEAFARLEEGHDKEDREKLAAALEHHHHHH
- stoichiometry N: 6
